In patent US20190315842A1 (DUKE UNIVERSITY, published 2019):

Columns and labels:
[1] = molecular target: T1, sclerosis autoantigen (Scl-70) (UniProt P11387 2-765, limits assumed); test: AtheNA Multi-Lyte ANA, Ab at 6.25 ug/ml;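 also: monoclonal antibodies screened for reactivity against a panel of nuclear autoantigens, with an anti-HIV and an anti-RSV monoclonal antibody serving as controls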
T1 sequence (looked up): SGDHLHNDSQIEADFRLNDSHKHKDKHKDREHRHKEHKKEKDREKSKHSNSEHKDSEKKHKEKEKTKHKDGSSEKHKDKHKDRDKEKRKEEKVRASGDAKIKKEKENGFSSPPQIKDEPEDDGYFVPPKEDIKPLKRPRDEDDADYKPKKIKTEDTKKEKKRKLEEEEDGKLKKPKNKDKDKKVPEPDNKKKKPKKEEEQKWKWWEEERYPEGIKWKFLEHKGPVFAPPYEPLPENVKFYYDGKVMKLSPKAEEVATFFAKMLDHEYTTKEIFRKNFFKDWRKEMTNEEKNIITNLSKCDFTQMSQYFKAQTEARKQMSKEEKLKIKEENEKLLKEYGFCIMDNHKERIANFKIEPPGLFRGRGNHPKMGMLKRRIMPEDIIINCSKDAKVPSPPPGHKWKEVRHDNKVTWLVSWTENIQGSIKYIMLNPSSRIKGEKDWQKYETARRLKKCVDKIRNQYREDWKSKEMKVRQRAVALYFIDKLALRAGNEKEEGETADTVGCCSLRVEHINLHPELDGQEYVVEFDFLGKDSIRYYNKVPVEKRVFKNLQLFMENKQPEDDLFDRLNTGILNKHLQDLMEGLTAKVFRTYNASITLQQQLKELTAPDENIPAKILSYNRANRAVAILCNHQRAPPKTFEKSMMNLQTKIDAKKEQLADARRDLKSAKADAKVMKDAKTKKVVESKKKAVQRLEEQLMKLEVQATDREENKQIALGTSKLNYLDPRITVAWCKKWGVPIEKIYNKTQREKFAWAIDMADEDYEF
Method: (§1) All 7 mAbs were tested against the AtheNA Multi-Lyte panel of autoantigens. The AtheNA Multi-Lyte ANA test for a panel of nuclear antigens: systemic lupus erythematosus autoantigens SSA and SSB, sphingomyelin (Sm), ribonucleoprotein (RNP), sclerosis autoantigen (Scl-70), histidine-tRNA ligase (Jo-1), double-stranded DNA (dsDNA), centromere B (CentB), and histones. 4e10 (Anti HIV, NIH AIDS Reagent Program) and SYNAGIS® (anti-RSV monoclonal antibody palivizumab; “Synagis”) were used a controls.

[2] = molecular target: systemic lupus erythematosus autoantigen SSA; test: AtheNA Multi-Lyte ANA, Ab at 6.25 ug/ml;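 also: monoclonal antibodies screened for reactivity against a panel of nuclear autoantigens, with an anti-HIV and an anti-RSV monoclonal antibody serving as controls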
Method: as §1

[3] = molecular target: ribonucleoprotein (RNP); test: AtheNA Multi-Lyte ANA, Ab at 6.25 ug/ml;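 also: monoclonal antibodies screened for reactivity against a panel of nuclear autoantigens, with an anti-HIV and an anti-RSV monoclonal antibody serving as controls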
Method: as §1

[4] = molecular target: T2, Sm (sphingomyelin); test: AtheNA Multi-Lyte ANA, Ab at 6.25 ug/ml;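 also: monoclonal antibodies screened for reactivity against a panel of nuclear autoantigens, with an anti-HIV and an anti-RSV monoclonal antibody serving as controls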
T2 construct: in an ANA panel of nuclear antigens Sm is usually the Smith ribonucleoprotein antigen; Kept, but see recheck
Method: as §1

[5] = molecular target: T3, histidine-tRNA ligase (Jo-1) (UniProt P12081 2-509); test: AtheNA Multi-Lyte ANA, Ab at 6.25 ug/ml
T3 sequence (looked up): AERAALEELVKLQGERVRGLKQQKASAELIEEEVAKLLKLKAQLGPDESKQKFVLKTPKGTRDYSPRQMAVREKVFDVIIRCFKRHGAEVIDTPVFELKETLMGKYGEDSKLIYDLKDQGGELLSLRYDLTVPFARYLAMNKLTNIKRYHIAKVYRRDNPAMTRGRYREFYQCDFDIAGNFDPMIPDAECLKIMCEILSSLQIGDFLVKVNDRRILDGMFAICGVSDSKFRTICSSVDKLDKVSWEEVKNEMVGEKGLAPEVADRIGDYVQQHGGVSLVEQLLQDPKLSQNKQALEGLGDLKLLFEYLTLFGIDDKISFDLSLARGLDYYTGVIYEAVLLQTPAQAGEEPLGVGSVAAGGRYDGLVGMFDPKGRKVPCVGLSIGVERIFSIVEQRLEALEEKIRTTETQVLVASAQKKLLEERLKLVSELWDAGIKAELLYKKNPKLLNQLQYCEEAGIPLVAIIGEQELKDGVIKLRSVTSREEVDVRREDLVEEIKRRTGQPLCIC
Method: as §1

[6] = molecular target: T1, sclerosis autoantigen (Scl-70); test: AtheNA Multi-Lyte ANA, Ab at 12.5 ug/ml;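 also: monoclonal antibodies screened for binding to a panel of nuclear autoantigens (SSA, SSB, Sm, RNP, Scl-70, Jo-1, dsDNA, CentB, histones), with anti-HIV and anti-RSV antibodies as controls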
[7] = molecular target: systemic lupus erythematosus autoantigen SSA; test: AtheNA Multi-Lyte ANA, Ab at 12.5 ug/ml;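 also: monoclonal antibodies screened for binding to a panel of nuclear autoantigens (SSA, SSB, Sm, RNP, Scl-70, Jo-1, dsDNA, CentB, histones), with anti-HIV and anti-RSV antibodies as controls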
[8] = molecular target: ribonucleoprotein (RNP); test: AtheNA Multi-Lyte ANA, Ab at 12.5 ug/ml;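 also: monoclonal antibodies screened for binding to a panel of nuclear autoantigens (SSA, SSB, Sm, RNP, Scl-70, Jo-1, dsDNA, CentB, histones), with anti-HIV and anti-RSV antibodies as controls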
[9] = molecular target: T2, Sm (sphingomyelin); test: AtheNA Multi-Lyte ANA, Ab at 12.5 ug/ml;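 also: monoclonal antibodies screened for binding to a panel of nuclear autoantigens (SSA, SSB, Sm, RNP, Scl-70, Jo-1, dsDNA, CentB, histones), with anti-HIV and anti-RSV antibodies as controls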
[10] = molecular target: T3, histidine-tRNA ligase (Jo-1); test: AtheNA Multi-Lyte ANA, Ab at 12.5 ug/ml
[11] = molecular target: T1, sclerosis autoantigen (Scl-70); test: AtheNA Multi-Lyte ANA, Ab at 50 ug/ml;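 also: monoclonal antibodies probed against a nuclear autoantigen panel (SSA, SSB, Sm, RNP, Scl-70, Jo-1, dsDNA, CentB, histones), with anti-HIV 4E10 and palivizumab as control antibodies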
Method: as §1

[12] = molecular target: systemic lupus erythematosus autoantigen SSA; test: AtheNA Multi-Lyte ANA, Ab at 50 ug/ml;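 also: monoclonal antibodies probed against a nuclear autoantigen panel (SSA, SSB, Sm, RNP, Scl-70, Jo-1, dsDNA, CentB, histones), with anti-HIV 4E10 and palivizumab as control antibodies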
Method: as §1

[13] = molecular target: ribonucleoprotein (RNP); test: AtheNA Multi-Lyte ANA, Ab at 50 ug/ml;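 also: monoclonal antibodies probed against a nuclear autoantigen panel (SSA, SSB, Sm, RNP, Scl-70, Jo-1, dsDNA, CentB, histones), with anti-HIV 4E10 and palivizumab as control antibodies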
Method: as §1

[14] = molecular target: T2, Sm (sphingomyelin); test: AtheNA Multi-Lyte ANA, Ab at 50 ug/ml;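 also: monoclonal antibodies probed against a nuclear autoantigen panel (SSA, SSB, Sm, RNP, Scl-70, Jo-1, dsDNA, CentB, histones), with anti-HIV 4E10 and palivizumab as control antibodies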
Method: as §1

[15] = molecular target: T3, histidine-tRNA ligase (Jo-1); test: AtheNA Multi-Lyte ANA, Ab at 50 ug/ml
Method: as §1

[16] = molecular target: T4, systemic lupus erythematosus autoantigen SSB (UniProt P05455 1-408, limits assumed); test: AtheNA Multi-Lyte ANA, Ab at 50 ug/ml
T4 sequence (looked up): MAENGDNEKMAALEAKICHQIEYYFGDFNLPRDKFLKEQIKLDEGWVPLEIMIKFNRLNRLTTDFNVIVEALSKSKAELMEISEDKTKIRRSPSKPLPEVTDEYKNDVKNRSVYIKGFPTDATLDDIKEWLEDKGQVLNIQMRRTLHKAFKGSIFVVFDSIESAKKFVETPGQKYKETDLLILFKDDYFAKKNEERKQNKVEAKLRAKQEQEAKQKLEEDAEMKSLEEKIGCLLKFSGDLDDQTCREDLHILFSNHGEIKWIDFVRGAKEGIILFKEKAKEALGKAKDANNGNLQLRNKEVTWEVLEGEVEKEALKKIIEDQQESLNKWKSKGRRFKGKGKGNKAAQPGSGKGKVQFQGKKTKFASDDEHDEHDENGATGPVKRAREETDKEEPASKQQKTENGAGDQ
Method: as §1

Binder | AtheNA signal [1] | AtheNA signal [2] | AtheNA signal [3] | AtheNA signal [4] | AtheNA signal [5] | AtheNA signal [6] | AtheNA signal [7] | AtheNA signal [8] | AtheNA signal [9] | AtheNA signal [10] | AtheNA signal [11] | AtheNA signal [12] | AtheNA signal [13] | AtheNA signal [14] | AtheNA signal [15] | AtheNA signal [16]
Ab7957/293i (antibody, IgG1, V domains shown, Recombinant human antibody with IgG1 heavy chain backbone and kappa light chain constant; they begin at LVESGGG and MTQSP; also called Ab7957i; mAb 7957) VH: LVESGGGVVPPGKSLRLSCAASGFTFSLYGIHWVRQAPGKGLEWVAVISYDGNTKYYTDSVKGRFTISRDNAKNTIYLQMNSLRLDDTAVYYCAKGAANSATFDFWGRGTMVTVSS VL: MTQSPDSLTLSLGERATINCRSSRTVLYRSNNKNYLAWYQHKPGQPPKLLMSWASTRETGVPDRFSGSGSGTHFTLTITSLQPEDVAVYYCQQYYSPPWTFGQGTKVEIR | 2 | 9 | 3 | 3 | 3 | 2 | 9 | 3 | 1 | 3 | 2 | 11 | 6 | 4 | 5 | –
Ab7968 (antibody, IgG1, V domains shown, Recombinant human antibody with IgG1 heavy chain backbone and kappa light chain constant; they begin at LVESGGG and MTQSP; also called mAb 7968; mAb7968) VH: LVESGGGVVQPGRSLRLSCAASGFTFSRYGMHWVRQAPGKGLEWVAVMSYDGSTKYYADSVKGRFAISRDNPKNTLFLQMNSLRPDDTAVYYCAKGGAAAAVMDVWGKGTTVTVSS VL: MTQSPDSLTVSLGERATISCKSSQRLLYSSNNKNYLAWYQQKPGQPPKLLMYWASTRESGVPDRFSGSGSGTDFSLTISSLQAEDVAVYYCQQYYNPPWTFGQGTKVEVK | 3 | 4 | 7 | 4 | 4 | 3 | 4 | 7 | 7 | 2 | 4 | 7 | 10 | 7 | 7 | 9
Ab7962/293i (antibody, V domains shown, Recombinant human antibody with IgG1 heavy chain backbone and kappa light chain constant (IgM in the donor B cell); they begin at LVESGGG and MTQSL; also called clone 27; pH007962/pK005996) VH: LVESGGGLVQPGGSLRLSCAASGFTFSSYEMNWVRQAPGKGLEWVSYISSSGSTIYYADSVKGRFTISRDNAKNSLYLQMNSLRAEDTAVYYCARVEQLAPSPYMDVWGKGTTVTVSS VL: MTQSLDSLTVSLGERATINCKSSQSLLYTSNNKNYLAWYQQKSGQPPKLLIYWASIRDSGVPDRFSGSGSATDFTLTINNLQAEDVAVYFCQQYYKTPLTFGGGTKVEVR | 1 | 2 | 2 | 4 | 4 | 2 | 2 | 3 | 3 | 5 | 2 | 2 | 5 | 4 | 4 | 8
